Literature values in paper PMC12609503.

What was measured:
[1] = molecular target: GnRH receptor (LN-CaP cells) (Homo sapiens) (UniProt P30968); experiment: cell binding assay
[2] = molecular target: GnRH receptor (pituitary membrane) (Rattus norvegicus) (UniProt P30969); experiment: radioligand saturation binding
Sequence of UniProt P30969 (P30969 whole entry): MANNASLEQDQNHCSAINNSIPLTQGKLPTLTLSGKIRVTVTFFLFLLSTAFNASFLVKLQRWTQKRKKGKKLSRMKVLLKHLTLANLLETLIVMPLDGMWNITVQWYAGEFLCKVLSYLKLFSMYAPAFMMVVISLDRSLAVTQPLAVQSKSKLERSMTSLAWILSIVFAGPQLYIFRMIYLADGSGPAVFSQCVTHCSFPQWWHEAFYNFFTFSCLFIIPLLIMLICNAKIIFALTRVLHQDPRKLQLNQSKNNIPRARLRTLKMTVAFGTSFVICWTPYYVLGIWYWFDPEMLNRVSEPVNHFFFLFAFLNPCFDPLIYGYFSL

Sequence of UniProt P30968 (P30968 whole entry): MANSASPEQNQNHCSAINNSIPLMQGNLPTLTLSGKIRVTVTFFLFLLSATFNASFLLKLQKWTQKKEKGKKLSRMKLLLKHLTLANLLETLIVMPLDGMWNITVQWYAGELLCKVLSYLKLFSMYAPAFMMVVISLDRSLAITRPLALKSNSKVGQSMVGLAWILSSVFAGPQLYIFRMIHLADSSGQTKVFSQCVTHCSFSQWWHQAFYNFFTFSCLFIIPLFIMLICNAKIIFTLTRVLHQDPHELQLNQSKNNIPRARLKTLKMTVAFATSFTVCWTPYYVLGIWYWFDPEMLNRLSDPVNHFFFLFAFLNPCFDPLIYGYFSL

Row | Kd [2] [µM] | Substance | Kd [1] [µM]
1 |  | 99mTc-HYNIC-Ahx-DLys6-GnRH (from UniProt P01148) | 0.042
2 |  | 99mTc-HYNIC-GABA-DLys6-GnRH (from UniProt P01148) | 0.089
3 | 0.000435 | 125I-LHRH (from UniProt P01148) | 
